Test results from PMC3626623, “Homo-dimerization and ligand binding by the leucine-rich repeat domain at RHG1/RFS2 underlying resistance to two soybean pathogens” (BMC Plant Biology, 2013).
No end group written: not given here.

The molecules below were run on GmRLK18-1 LRR domain (assay: Far Western analysis of total root proteins probed with the LRR domain). Conditions: 2 D gels of total root proteins of SCN inoculated plants, identified by MS/MS; cyclophilin at 10 dai, methionine synthase at 28 dai.
Format: binding, Glycine max
Text: For Far-Westerns the LRR domain was used as a probe to filters transferred from 1 or 2 D gels. As the secondary probe, anti-his antibody conjugated to HRP (1–10,000 dilution; Invitrogen, Carlsbad CA) was used. Spots and bands were picked manually and the proteins in them digested with trypsin and identified by direct infusion MS/MS following the methods in [31].
“cyclophilin: soybean root cyclophilin, 182 amino acids, matches gi 17981611, 19,392 d, pI 8.38” was tested, and the “binding to the LRR domain in Far Western (in words)” value was “avidly bound to the LRR”.

Each molecule was assayed against GmRLK18-1 LRR domain expressed in E. coli (soybean (Glycine max)) (assay: native gel or EMSA; 12% (w/v) non-denatured PAGE of purified, refolded GmRLK18-1-LRR from E. coli; bands eluted and run again on SDS-PAGE). Conditions: not given.
For “GmRLK18-1 LRR domain expressed in E. coli (domain or fragment)”, the stoichiometry N was 2.

These molecules were tested against GmRLK08-1 LRR domain expressed in E. coli (soybean (Glycine max)) (assay: fluorescence polarisation; FITC-labelled peptides in 20 mM phosphate buffer pH 6.9 in a cuvette, 5 nM aliquots, increase in polarisation; baseline of non-CLE and non-LRR peptides subtracted; Kd from double reciprocal Scatchard plots; 3 repeats with 3 protein preparations; apparent for peptide L). Conditions: not given.
Molecule RTVPSGPDPLHH (not fully specified (N-terminus); also: labeled with FITC) [CLE peptide 3] has a Kd of 50 nM.
Molecule KGLGLHEEELRTVPSGPDPLHHHVNPPRQPR (not fully specified (N-terminus); also: labeled with FITC) [CLE peptide 3L] has a Kd of 142 nM.
Molecule CTLSRLKTLDISNNALNGNLPATLSNLS (not fully specified (N-terminus); also: labeled with FITC) [LRR peptide L of GmRLK18-1] has a Kd of 135 nM.
In the case of KRLSPSGPDPHHH (not fully specified (N-terminus); also: labeled with FITC) [CLE peptide N], the Kd is reported as 78 nM.
DLPLAPADRLAGGPDPQHNVRAPPRKP (not fully specified (N-terminus); also: labeled with FITC) [CLE peptide 2L] was tested, and the Kd was 338 nM.
Work on RAELDFNYMSKRRVPNGPDPIHNRRAGNSGR (not fully specified (N-terminus); also: labeled with FITC) [CLE peptide 36L] yielded a Kd of 51 nM.
Work on RLAPEGPDPHHN (not fully specified (N-terminus); also: labeled with FITC) [CLE peptide 30] yielded a Kd of 84 nM.
Work on RLAPGGPDPQHN (not fully specified (N-terminus); also: labeled with FITC) [CLE peptide 2] yielded a Kd of 96 nM.
SKRRVPNGPDPIHNR (not fully specified (N-terminus); also: labeled with FITC) [CLE peptide 36] showed a Kd of 52 nM.
In the case of AHEVPSGPNPISNR (not fully specified (N-terminus); also: labeled with FITC) [CLE peptide T], the Kd is reported as 204 nM.

The molecules below were run against GmRLK18-1 LRR domain expressed in E. coli (soybean (Glycine max)) in the same assay as above. Conditions: not given.
Molecule RTVPSGPDPLHH (not fully specified (N-terminus); also: labeled with FITC) [CLE peptide 3] has a Kd of 29 nM.
With KGLGLHEEELRTVPSGPDPLHHHVNPPRQPR (not fully specified (N-terminus); also: labeled with FITC) [CLE peptide 3L] the Kd was 65 nM.
With CTLSRLKTLDISNNALNGNLPATLSNLS (not fully specified (N-terminus); also: labeled with FITC) [LRR peptide L of GmRLK18-1] the Kd was 36 nM.
For KRLSPSGPDPHHH (not fully specified (N-terminus); also: labeled with FITC) [CLE peptide N], the Kd was 30 nM.
DLPLAPADRLAGGPDPQHNVRAPPRKP (not fully specified (N-terminus); also: labeled with FITC) [CLE peptide 2L] showed a Kd of 142 nM.
With RAELDFNYMSKRRVPNGPDPIHNRRAGNSGR (not fully specified (N-terminus); also: labeled with FITC) [CLE peptide 36L] the Kd was 49 nM.
Molecule RLAPEGPDPHHN (not fully specified (N-terminus); also: labeled with FITC) [CLE peptide 30] has a Kd of 44 nM.
Work on RLAPGGPDPQHN (not fully specified (N-terminus); also: labeled with FITC) [CLE peptide 2] yielded a Kd of 45 nM.
For SKRRVPNGPDPIHNR (not fully specified (N-terminus); also: labeled with FITC) [CLE peptide 36], the Kd was 14 nM.
Molecule AHEVPSGPNPISNR (not fully specified (N-terminus); also: labeled with FITC) [CLE peptide T] has a Kd of 20 nM.
